In PMC7501880 one finds Kd data, which are given here for one substance.

The assay deals with DIP-α^Nectin1 chimera (human | Drosophila) (UniProt Q15223). As to the kind of experiment: SPR. For orientation: In SPR one partner is held on a chip, and binding of the other changes the refractive index at the surface.

pKd: −log10 of the molar value.

As usually defined, the pKd is −log10 of the Kd, conventionally taken in molar units. The low end stands for a high Kd, the high end for a low Kd.

For “Dpr10^Nectin3 chimera (from UniProt Q9NQS3 58-167)”, the pKd is > 2.30.
